Values quoted from earlier work in patent US5977174A, “Cholinergic compositions and uses thereof” (Neuromedica, Inc., priority 1997, dated 1999).

B1: C84S tPA: tPA variants in which a cysteine at position 84 of the growth factor domain of native tPA is replaced by serine (protein, UniProt P00750 36-562, looked up, variant C84S)
Tissue-type plasminogen …: SYQVICRDEKTQMIYQQHQSWLRPVLRSNRVEYCWCNSGRAQCHSVPVKSCSEPRCFNGGTCQQALYFSDFVCQCPEGFAGKCSEIDTRATCYEDQGISYRGTWSTAESGAECTNWNSSALAQKPYSGRRPDAIRLGLGNHNYCRNPDRDSKPWCYVFKAGKYSSEFCSTPACSEGNSDCYFGNGSAYRGTHSLTESGASCLPWNSMILIGKVYTAQNPSAQALGLGKHNYCRNPDGDAKPWCHVLKNRRLTWEYCDVPSCSTCGLRQYSQPQFRIKGGLFADIASHPWQAAIFAKHRRSPGERFLCGGILISSCWILSAAHCFQERFPPHHLTVILGRTYRVVPGEEEQKFEVEKYIVHKEFDDDTYDNDIALLQLKSDSSRCAQESSVVRTVCLPPADLQLPDWTECELSGYGKHEALSPFYSERLKEAHVRLYPSSRCTSQHLLNRTVTDNMLCAGDTRSGGPQANLHDACQGDSGGPLVCLNDGRMTLVGIISWGLGCGQKDVPGVYTKVTNYLDWIRDNMRP
- in vivo half life vs native tPA: longer in vivo half life than native tPA
